Test results taken from publication doi:10.1101/2025.07.02.662585 (bioRxiv, 2025).

B1: Lst8 (natural protein)
chain: MSVILVSAGYDHTIRFWEALTGVCSRTIQHSDSQVNRLEITNDKKLLATAGHQNVRLYDIRTTNPNPVASFEGHRGNVTSVSFQQDNRWMVTSSEDGTIKVWDVRSPSIPRNYKHNAPVNEVVIHPNQGELISCDRDGNIRIWDLGENQCTHQLTPEDDTSLQSLSMASDGSMLAAANTKGNCYVWEMPNHTDASHLKPVTKFRAHSTYITRILLSSDVKHLATCSADHTARVWSIDDDFKLETTLDGHQRWVWDCAFSADSAYLVTASSDHYVRLWDLSTREIVRQYGGHHKGAVCVALNDV
B2: Avo2 (natural protein)
chain: MLKEPSVRLREAIIEGNLLIVKRLLRRNPDLLTNIDSENGWSSLHYASYHGRYLICVYLIQLGHDKHELIKTFKGNTCVHLALMKGHEQTLHLLLQQFPRFINHRGENGRAPIHIACMNDYYQCLSLLIGVGADLWVMDTNGDTPLHVCLEYGSISCMKMLLNEGEVSLDDNVRDKGNWKPIDVAQTFEVGNIYSKVLKEVKKKGPPLGAGKKPSSFRTPILNAKATFEDGPSPVLSMNSPYSLYSNNSPLPVLPRRISTHTTSGNGGNRRSSITNPVFNPRKPTLSTDSFSSSSNSSSRLRVNSINVKTPVGVSPKKELVSESVRHSATPTSPHNNIALINRYLLPNKSNDNVRGDSQTATINDDGGGGNGGDATIGMGLRKDPDDENENKYKIKVNNGEPRRRVSLLNIPISKLRNSNNTRAED

Biological target: Tor2 (yeast (endogenous in yeast cells), UniProt P32600 1-2474)
Sequence (P32600 whole entry): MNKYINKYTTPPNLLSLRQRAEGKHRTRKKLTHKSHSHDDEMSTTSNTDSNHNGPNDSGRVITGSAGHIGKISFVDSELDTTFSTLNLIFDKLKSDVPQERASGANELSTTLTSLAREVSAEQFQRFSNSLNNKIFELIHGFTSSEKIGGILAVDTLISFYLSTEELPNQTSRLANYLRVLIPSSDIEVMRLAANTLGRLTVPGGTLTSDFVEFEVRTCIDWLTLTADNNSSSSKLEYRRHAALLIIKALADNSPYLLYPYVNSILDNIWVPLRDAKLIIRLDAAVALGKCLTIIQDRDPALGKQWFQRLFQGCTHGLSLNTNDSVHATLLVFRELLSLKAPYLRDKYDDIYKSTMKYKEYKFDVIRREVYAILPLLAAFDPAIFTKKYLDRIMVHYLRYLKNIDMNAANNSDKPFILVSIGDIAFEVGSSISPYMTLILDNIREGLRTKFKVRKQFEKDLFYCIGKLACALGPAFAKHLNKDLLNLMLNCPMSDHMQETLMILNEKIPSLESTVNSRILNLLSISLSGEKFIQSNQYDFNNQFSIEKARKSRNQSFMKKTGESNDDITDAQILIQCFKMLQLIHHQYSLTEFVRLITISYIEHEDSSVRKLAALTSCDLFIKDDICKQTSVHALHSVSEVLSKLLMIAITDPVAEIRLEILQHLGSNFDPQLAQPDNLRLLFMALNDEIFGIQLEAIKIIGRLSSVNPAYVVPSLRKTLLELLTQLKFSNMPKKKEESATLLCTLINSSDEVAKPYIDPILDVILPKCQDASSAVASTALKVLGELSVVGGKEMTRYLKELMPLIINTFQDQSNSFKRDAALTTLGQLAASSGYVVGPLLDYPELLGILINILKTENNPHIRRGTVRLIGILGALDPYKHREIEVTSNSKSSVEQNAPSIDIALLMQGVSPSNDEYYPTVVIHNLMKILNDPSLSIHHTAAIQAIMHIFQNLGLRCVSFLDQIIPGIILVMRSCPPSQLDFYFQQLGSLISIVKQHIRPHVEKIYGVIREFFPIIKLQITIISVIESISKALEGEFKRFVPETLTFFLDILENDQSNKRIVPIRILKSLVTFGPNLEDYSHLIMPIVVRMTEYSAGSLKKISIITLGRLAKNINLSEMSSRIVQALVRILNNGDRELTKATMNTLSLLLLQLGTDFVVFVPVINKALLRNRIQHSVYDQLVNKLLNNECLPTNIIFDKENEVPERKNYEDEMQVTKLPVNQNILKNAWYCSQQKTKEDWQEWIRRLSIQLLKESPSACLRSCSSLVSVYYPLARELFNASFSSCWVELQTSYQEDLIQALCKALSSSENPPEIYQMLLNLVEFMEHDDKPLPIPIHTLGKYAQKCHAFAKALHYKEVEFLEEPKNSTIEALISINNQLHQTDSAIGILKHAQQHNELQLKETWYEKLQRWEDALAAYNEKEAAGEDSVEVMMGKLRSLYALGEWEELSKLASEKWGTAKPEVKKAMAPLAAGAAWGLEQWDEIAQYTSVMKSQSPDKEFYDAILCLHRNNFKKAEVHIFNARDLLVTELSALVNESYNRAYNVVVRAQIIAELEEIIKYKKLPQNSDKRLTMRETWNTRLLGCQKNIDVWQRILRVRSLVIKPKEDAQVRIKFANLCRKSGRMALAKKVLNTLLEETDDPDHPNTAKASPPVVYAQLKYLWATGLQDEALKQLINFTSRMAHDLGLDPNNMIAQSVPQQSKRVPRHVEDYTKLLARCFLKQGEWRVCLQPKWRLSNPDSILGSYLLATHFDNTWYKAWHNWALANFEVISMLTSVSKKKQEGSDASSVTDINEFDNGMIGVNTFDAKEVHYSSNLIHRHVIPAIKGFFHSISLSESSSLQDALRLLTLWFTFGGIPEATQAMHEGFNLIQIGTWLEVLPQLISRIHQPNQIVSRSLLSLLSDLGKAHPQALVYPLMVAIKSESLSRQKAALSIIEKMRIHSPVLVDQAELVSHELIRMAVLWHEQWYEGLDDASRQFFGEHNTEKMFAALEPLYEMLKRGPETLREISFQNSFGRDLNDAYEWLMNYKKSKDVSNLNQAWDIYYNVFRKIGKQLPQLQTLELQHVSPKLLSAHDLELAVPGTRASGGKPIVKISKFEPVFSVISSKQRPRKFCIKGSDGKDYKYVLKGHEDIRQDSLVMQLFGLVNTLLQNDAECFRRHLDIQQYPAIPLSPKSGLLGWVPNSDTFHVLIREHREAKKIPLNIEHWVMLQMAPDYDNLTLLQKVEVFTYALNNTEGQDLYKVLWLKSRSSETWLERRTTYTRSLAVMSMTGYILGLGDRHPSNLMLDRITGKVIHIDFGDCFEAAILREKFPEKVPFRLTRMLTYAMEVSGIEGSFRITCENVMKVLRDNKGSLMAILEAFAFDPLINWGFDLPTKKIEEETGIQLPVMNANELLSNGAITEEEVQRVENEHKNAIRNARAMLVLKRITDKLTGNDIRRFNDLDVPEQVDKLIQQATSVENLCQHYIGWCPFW
Assay: cryo-EM structure

Row | Binder | binding result
1 | B1 | binds
2 | B2 | binds
